Data on 167 variants can be found in the RNAGym collection of RNA variant scans (doi:10.7554/elife.80360).

B1: CPEB3 Ribozyme (parent)
chain: GGGGGCCACAGCAGAAGCGUUCACGUCGCGGCCCCUGUCAGAUUCUGGUGAAUCUGCGAAUUCUGCUGU

In the data set the parent is B1. The data set is described as follows: self-cleavage, relative activity (ratio to wild type); higher = more cleavage; co-transcriptional.
For G11C C32G, the self-cleavage was 0.17.
As for G11C C24U, the self-cleavage was 0.334.
As to G11C C24A, the self-cleavage amounted to 0.321.
Under G11A C35A stands 0.242; under G11A C35U, 0.861; under G11A G58A, 0.842.
As for G11A G58U, the self-cleavage was found to be 0.905.
Then G11A G58C, with 0.876; and A10U C24G, with 0.569; and A10U C24U, with 0.82.
A10U C24A: the self-cleavage stood at 0.796.
With A10U U69A, the self-cleavage stood at 1.02.
Regarding A10U G30A, the self-cleavage was 0.922.
Then A10U G30C, with 0.992; and A10U G41U, with 0.86; and A10U G41A, with 0.844.
For the variant G11A G68U, the self-cleavage amounted to 0.915.
Under G11A G68A stands 0.956; under G11A G68C, 0.947; under A10U U21C, 0.912.
Take A10U U21G: the self-cleavage stood at 0.581.
As for A10U U21A, the self-cleavage came to 1.
G11A G25U: the self-cleavage was 0.176.
As to G11A G25C, the self-cleavage came to 0.103.
Under G11C G25A stands 0.149; under G11C G25C, 0.177.
For the variant G11C G58A, the self-cleavage was found to be 0.82.
G11C U61G: the self-cleavage was determined as 0.383.
Under G11C U61A stands 0.424; under A10U G37U, 0.203; under A10U G37A, 0.322.
For G11A C29A, the self-cleavage came out at 0.26.
As for G11A C29G, the self-cleavage came to 0.148.
Then G11A C29U, with 0.0741; and G11C G65C, with 0.409; and G11C G65U, with 0.53.
Consider G11C C63A, for which the self-cleavage stood at 0.275.
Then G11C C63G, with 0.299; and G11A A59U, with 0.41.
In the case of G11A U44C, the self-cleavage was 0.528.
As to G11A U44G, the self-cleavage worked out at 0.76.
In the case of G11C U44A, the self-cleavage came to 0.636.
Under G11C C18A stands 0.0969.
Take G11C C18U: the self-cleavage came out at 0.246.
Turning to A10U G47A, the self-cleavage came to 1.03.
Under A10U G47U stands 0.962.
In the case of A10U G47C, the self-cleavage was found to be 0.991.
On to G11C U67G, for which the self-cleavage came to 0.93.
In the case of G11C U67A, the self-cleavage was 0.897.
For G11C U67C, the self-cleavage was 0.92.
As to G11C G41A, the self-cleavage turned out to be 0.209.
G11A G14C: the self-cleavage was found to be 0.267.
Then G11A G14A, with 0.119.
Consider A10U U44C, for which the self-cleavage was found to be 0.949.
As for A10U U44G, the self-cleavage stood at 0.928.
Consider G11C A60G, for which the self-cleavage was 0.434.
For G11C A60U, the self-cleavage is 0.243.
As to G11C U21C, the self-cleavage amounted to 0.431.
Regarding G11C U21G, the self-cleavage worked out at 0.199.
On to G11A C33U, for which the self-cleavage is 0.908.
Consider G11A C33G, for which the self-cleavage turned out to be 0.733.
Turning to A10U A59U, the self-cleavage was found to be 0.879.
For A10U A59C, the self-cleavage was found to be 0.778.
G11C C66A: the self-cleavage worked out at 0.844.
For the variant A10U U64C, the self-cleavage came out at 0.778.
Then G11C C22A, with 0.177; and G11C C22U, with 0.143; and G11A U20G, with 0.154.
G11A U20C: the self-cleavage was 0.213.
Under G11A C39G stands 0.646.
Turning to G11A C39U, the self-cleavage amounted to 0.609.
Regarding G11A C39A, the self-cleavage amounted to 0.405.
Then A10U G31C, with 0.262; and A10U G25U, with 0.162.
Turning to A10U G25C, the self-cleavage was 0.155.
In the case of A10U G56C, the self-cleavage turned out to be 0.84.
G11A A52C: the self-cleavage turned out to be 0.865.
In the case of G11A A52U, the self-cleavage is 0.837.
Take G11A C32G: the self-cleavage was 0.293.
G11A C32A: the self-cleavage amounted to 0.816.
Take G11A G65A: the self-cleavage amounted to 0.759.
On to G11A G65U, for which the self-cleavage is 0.781.
On to G11C G28A, for which the self-cleavage is 0.0877.
G11C G28C: the self-cleavage is 0.137.
For G11C G28U, the self-cleavage was found to be 0.137.
On to G11C U64A, for which the self-cleavage is 0.385.
On to G11C U64C, for which the self-cleavage is 0.424.
Turning to G11C U53A, the self-cleavage turned out to be 0.381.
Then G11C U53C, with 0.28; and A10U C66U, with 1.01.
As for G11C U46C, the self-cleavage worked out at 0.787.
In the case of G11C U46A, the self-cleavage stood at 0.866.
With G11C U46G, the self-cleavage turned out to be 0.849.
Under G11A A51U stands 0.847; under G11A A51G, 0.865.
Consider A10U G48U, for which the self-cleavage was found to be 1.
As for A10U C32U, the self-cleavage was 1.02.
Take A10U C32A: the self-cleavage is 0.93.
Take A10U C32G: the self-cleavage amounted to 0.64.
As for G11A G56U, the self-cleavage is 0.475.
Then G11A G56A, with 0.708; and A10U C54U, with 1.01; and G11C U26C, with 0.729.
Regarding G11C U26A, the self-cleavage worked out at 0.387.
For G11C U26G, the self-cleavage was 0.417.
G11C A23U: the self-cleavage came out at 0.798.
As to G11A G50C, the self-cleavage turned out to be 0.715.
Then G11A G50U, with 0.927; and A10U G19A, with 0.15; and A10U G19U, with 0.589.
With A10U G19C, the self-cleavage was 0.119.
On to G11C A40C, for which the self-cleavage stood at 0.179.
For the variant G11C A40U, the self-cleavage worked out at 0.26.
Take G11C A40G: the self-cleavage was 0.643.
Take A10U C18G: the self-cleavage was 0.182.
Turning to G11A U61G, the self-cleavage stood at 0.392.
Turning to G11A U61A, the self-cleavage amounted to 0.452.
G11A U61C: the self-cleavage turned out to be 0.268.
Take A10U G11U: the self-cleavage is 0.908.
For the variant A10U U36A, the self-cleavage was found to be 0.291.
In the case of G11A C22U, the self-cleavage turned out to be 0.191.
Then G11A C22A, with 0.127; and G11A G37A, with 0.188; and G11A G37C, with 0.196.
With G11C U43C, the self-cleavage is 0.571.
Regarding G11C U43A, the self-cleavage is 0.357.
Regarding G11C C27A, the self-cleavage worked out at 0.177.
On to G11C C27U, for which the self-cleavage is 0.0897.
Then A10U G17C, with 0.168; and A10U G17U, with 0.512; and G11C G19C, with 0.145.
Regarding G11A U49A, the self-cleavage is 0.926.
Under G11A U49G stands 0.965; under G11U A16U, 0.48.
G11U A16C: the self-cleavage was determined as 0.101.
Consider A10U U61C, for which the self-cleavage was 0.781.
For the variant G11A A23G, the self-cleavage was found to be 0.792.
As to G11A A23U, the self-cleavage was 0.855.
In the case of G11A A23C, the self-cleavage came out at 0.775.
For A10U U46G, the self-cleavage came to 1.01.
With G11A U26A, the self-cleavage is 0.676.
Then G11A A60G, with 0.434; and G11A A60U, with 0.323; and G11A U38G, with 0.142.
Turning to G11A U38C, the self-cleavage was 0.733.
G11A U38A: the self-cleavage amounted to 0.684.
With G11C U36A, the self-cleavage was found to be 0.0623.
Then G11C U36C, with 0.62; and G11C U36G, with 0.18.
Regarding A10U G50C, the self-cleavage worked out at 1.
Take A10U G50A: the self-cleavage was found to be 0.978.
Take G11U A15U: the self-cleavage worked out at 0.295.
On to G11C A52G, for which the self-cleavage came out at 0.838.
For G11C A52U, the self-cleavage was determined as 0.628.
Take G11C A52C: the self-cleavage turned out to be 0.551.
Under A10U G65C stands 0.627.
For G11A C57A, the self-cleavage worked out at 0.287.
Regarding G11A C57U, the self-cleavage amounted to 0.332.
As to G11C A42G, the self-cleavage turned out to be 0.51.
Turning to G11C A42U, the self-cleavage is 0.41.
On to A10U U26A, for which the self-cleavage was determined as 0.917.
With A10U U26C, the self-cleavage worked out at 0.986.
Take G11A C24U: the self-cleavage turned out to be 0.259.
Under G11A C24G stands 0.16; under G11A C24A, 0.345.
Consider G11C G30A, for which the self-cleavage turned out to be 0.522.
For G11C G30C, the self-cleavage was 0.435.
